For data set [1], the target named is T1, RXR alpha homodimer (UniProt P19793 P19793:1-462). The data set can be described thus: EMSA; with 9-cis-RA; complex slower than heterodimer; reduced when RAR present. The following applies: chain copies: 2 (stated); label: 32P. The method, then: (§1) (a) In vitro synthesized RXRα was incubated either with (+) or without (−) indicated hormones (10^-7M 9-cis-RA; 10^-6M RA; 10^-6M T_3) in the presence or absence of in vitro synthesized TRα or RARβ for 30 min at room temperature. After this preincubation, the reaction mixtures were analyzed by gel retardation assay using ^32P-labeled TREpal as probe. Lane 1 represents the nonspecific binding of unprogrammed reticulocyte lysate. Open triangles indicate the nonspecific complex observed with unprogrammed reticulocyte lysate. Solid triangles indicate the specific TRα-RXRα heterodimer binding. Arrows indicate specific RXRα homodimer binding. The RXRα/RARβ heterodimer migrates at the same position as the RXRα homodimer. For comparison, the effect of 9-cis-RA on RARβ binding is shown.
(§2) (b) The effect of 9-cis-RA on RXR homodimer binding of ApoAI-RARE or CRBPII-RARE was analyzed essentially as described in FIG. 1a. Lane 1 represents the nonspecific binding of unprogrammed reticulocyte lysate, which are indicated by the open triangles. Solid triangles indicate the RAR/RXR heterodimer complex. Arrows indicate the specific RXR binding complex.
(§3) Gel retardation assays using in vitro synthesized receptor protein are described in the FIG. 1 legend. The following oligonucleotides and their complements were used as probes in FIGS. 3 and 4.

For a further data set, the target named is Estrogen receptor (UniProt P03372 P03372:1-595). The data set can be described thus: EMSA; ER complex shown for comparison. The conditions noted are these: chain copies: 2 (inferred); label: 32P. Here is the method:
as §1
(§4) FIGS. 4a and 4c show the response element specific binding of RXR homodimer. The effect of 9-cis-RA on RXR binding on RA specific response elements (a), T_3 specific response elements (b), or estrogen specific response element (c) was analyzed by gel retardation assays as described in FIG. 1a. For comparison, the binding of RXR/RAR heterodimer (a), RXR/TR heterodimer (b) or estrogen receptor (c) is shown. Open triangles indicate the nonspecific binding of unprogrammed reticulocyte lysate. Solid triangle indicates the RAR/RXR heterodimer complex (a), TR/RXR heterodimer complex (b) or ER complexes (c). […]

In another data set the target is T2, RAR beta (UniProt P10826-2 P10826-2:1-448).
T2 sequence: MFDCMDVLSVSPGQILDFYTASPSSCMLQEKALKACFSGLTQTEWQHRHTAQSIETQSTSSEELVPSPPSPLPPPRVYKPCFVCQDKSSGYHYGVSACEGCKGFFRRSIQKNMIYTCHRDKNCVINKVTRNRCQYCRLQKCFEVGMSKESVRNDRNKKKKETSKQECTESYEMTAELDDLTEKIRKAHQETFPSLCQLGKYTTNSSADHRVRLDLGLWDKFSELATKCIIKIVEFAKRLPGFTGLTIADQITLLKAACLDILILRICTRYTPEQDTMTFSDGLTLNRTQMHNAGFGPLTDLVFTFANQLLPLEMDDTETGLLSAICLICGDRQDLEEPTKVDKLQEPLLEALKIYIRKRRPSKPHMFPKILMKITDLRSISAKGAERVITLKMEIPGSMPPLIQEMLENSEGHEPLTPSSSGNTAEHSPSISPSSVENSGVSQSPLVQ
Nature of the data set: EMSA; RAR homodimer not induced by 9-cis-RA. The conditions noted are these: label: 32P. The method, then: as §1, §2, §3

The target of data set [2] is T1, RXR alpha homodimer. The data set can be described thus: EMSA; strong with 9-cis-RA, lesser with 1e-6 M RA. The conditions noted are these: chain copies: 2 (stated); label: 32P. Here is the method: as §1, §2, §3
Data set [3] addresses T1, RXR alpha homodimer. Nature of the data set: EMSA; with 9-cis-RA (effect from 1e-9 M, optimal 1e-8 M); little binding without ligand; also induced by SR11217 and SR11237. The conditions noted are these: chain copies: 2 (stated); label: 32P. The method, then: as §1
In data set [4] the target is T1, RXR alpha homodimer. Nature of the data set: EMSA; with 9-cis-RA. The following applies: chain copies: 2 (stated); label: 32P. The method, then: as §1, §4
For data set [5], the target named is T1, RXR alpha homodimer. Nature of the data set: EMSA; with or without 9-cis-RA. The conditions noted are these: chain copies: 2 (stated); label: 32P. Here is the method:
as §1, §4

The target in data set [6] is TR alpha/RXR alpha heterodimer (UniProt P10827-2;P19793 P10827-2:1-410,P19793:1-462). The data set can be described thus: EMSA. The following applies: label: 32P. Here is the method: as §1, §4
TR alpha/RXR alpha heterodimer, sequence (P10827 other isoform, or with tags, fused parts or gaps, chain 1 of 2): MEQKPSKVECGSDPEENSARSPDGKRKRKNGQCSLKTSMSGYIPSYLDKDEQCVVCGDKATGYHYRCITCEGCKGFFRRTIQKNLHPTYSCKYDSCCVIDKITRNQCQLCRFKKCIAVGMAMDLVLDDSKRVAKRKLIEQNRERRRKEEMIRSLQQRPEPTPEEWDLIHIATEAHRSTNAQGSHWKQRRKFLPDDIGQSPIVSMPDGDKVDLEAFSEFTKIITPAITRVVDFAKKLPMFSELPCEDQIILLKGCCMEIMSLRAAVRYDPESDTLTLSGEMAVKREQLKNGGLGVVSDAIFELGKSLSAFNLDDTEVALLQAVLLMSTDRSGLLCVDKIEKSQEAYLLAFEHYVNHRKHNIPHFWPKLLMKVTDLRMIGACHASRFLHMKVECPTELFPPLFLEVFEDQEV
TR alpha/RXR alpha heterodimer, sequence (P19793 whole entry, chain 2 of 2): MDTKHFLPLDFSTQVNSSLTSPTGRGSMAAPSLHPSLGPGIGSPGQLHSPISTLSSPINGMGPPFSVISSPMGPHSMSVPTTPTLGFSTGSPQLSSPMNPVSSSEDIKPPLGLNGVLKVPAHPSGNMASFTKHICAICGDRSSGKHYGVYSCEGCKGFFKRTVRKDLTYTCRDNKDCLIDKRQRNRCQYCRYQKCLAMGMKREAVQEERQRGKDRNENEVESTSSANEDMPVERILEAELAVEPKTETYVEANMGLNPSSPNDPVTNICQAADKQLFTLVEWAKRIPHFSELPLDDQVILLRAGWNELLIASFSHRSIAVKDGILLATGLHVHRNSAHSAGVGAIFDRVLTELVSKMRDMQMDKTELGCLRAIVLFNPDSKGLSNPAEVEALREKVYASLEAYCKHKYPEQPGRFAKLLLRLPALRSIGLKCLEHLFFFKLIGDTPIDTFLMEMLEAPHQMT

T1 sequence (P19793 whole entry, one chain of several): as the sequence (P19793 whole entry, chain 2 of 2) above
Estrogen receptor, sequence (P03372 whole entry, one chain of several): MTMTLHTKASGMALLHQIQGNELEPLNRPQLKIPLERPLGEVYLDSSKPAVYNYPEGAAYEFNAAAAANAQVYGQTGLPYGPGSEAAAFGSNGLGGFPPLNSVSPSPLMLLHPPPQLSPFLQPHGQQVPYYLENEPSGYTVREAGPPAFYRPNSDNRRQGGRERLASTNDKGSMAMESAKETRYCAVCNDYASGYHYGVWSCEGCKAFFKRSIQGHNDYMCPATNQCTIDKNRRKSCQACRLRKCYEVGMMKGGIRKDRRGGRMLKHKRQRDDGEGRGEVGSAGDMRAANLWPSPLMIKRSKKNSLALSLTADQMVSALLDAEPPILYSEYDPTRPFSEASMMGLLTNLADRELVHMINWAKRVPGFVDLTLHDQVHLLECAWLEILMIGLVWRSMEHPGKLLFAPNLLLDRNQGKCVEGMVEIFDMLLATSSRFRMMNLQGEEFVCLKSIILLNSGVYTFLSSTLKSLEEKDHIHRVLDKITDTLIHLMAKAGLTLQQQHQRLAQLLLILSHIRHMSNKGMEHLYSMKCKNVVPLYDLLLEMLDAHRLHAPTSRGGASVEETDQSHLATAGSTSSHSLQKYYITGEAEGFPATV

B1: CRBPII-RARE (dsDNA)
DNA 1: GATCCAGGTCACAGGTCACAGGTCACAGTTCAAGATC
DNA 2: GATCTTGAACTGTGACCTGTGACCTGTGACCTGGATC
Turning to B1, the binding result with RXR alpha homodimer [1] is “binds”.

B2: ERE (dsDNA)
DNA 1: GATCTCAGGTCACTGTGACCTGAGATC
DNA 2: GATCTCAGGTCACAGTGACCTGAGATC
B2: in the data set with Estrogen receptor, the binding result is recorded as “binds”.

B3: ApoAI-RARE (dsDNA)
DNA 1: GATCAGGGCAGGGGTCAAGGGTTCAGTGATC
DNA 2: GATCACTGAACCCTTGACCCCTGCCCTGATC
B3: the binding result with RAR beta is “no binding”; with RXR alpha homodimer [2], “binds”.

B4: TREpal (dsDNA)
DNA 1: GATCTCAGGTCATGACCTGAGATC
DNA 2: GATCTCAGGTCATGACCTGAGATC
Regarding B4, the binding result with RXR alpha homodimer [3] was “binds”.

B5: DR-5 (dsDNA)
DNA 1: GATCTCAGGTCATCCTCAGGTCAGATC
DNA 2: GATCTGACCTGAGGATGACCTGAGATC
With B5, in the data set with RXR alpha homodimer [4], the binding result was “no binding”.

B6: CRBPI-RARE (dsDNA)
DNA 1: GATCCAGGTCAAAAAGTCAGGATC
DNA 2: GATCCTGACTTTTTGACCTGGATC
For the molecule B6, the binding result in the data set with RXR alpha homodimer [4] was “no binding”.

B7: MHC-TRE (dsDNA)
DNA 1: GATCCTGGAGGTGACAGGAGGACAGCGATC
DNA 2: GATCGCTGTCCTCCTGTCACCTCCAGGATC
For B7, the binding result is “no binding” in the data set with RXR alpha homodimer [5] and “binds” in data set [6].

B8: ME-TRE (dsDNA)
DNA 1: GATCCAGGACGTTGGGGTTAGGGGAGGACAGTGGGATC
DNA 2: GATCCCACTGTCCTCCCCTAACCCCAACGTCCTGGATC
In the case of B8, the binding result in the data set with RXR alpha homodimer [5] was “no binding”; in data set [6], “binds”.

The values are drawn from patent publication US5824484, “RXR homodimer formation” (La Jolla Cancer Research Foundation).
